Numbered stars: 1 amine (or outer) side, 2 acyl side, 3 side chain; on linkers, the order of the positions; unused ones are H or OH. Square brackets hold non-standard residues; d marks the D form. Side chains are listed from the residue outwards. Ends that are not written are not given here. * marks the point of attachment. C20 diacid = O=C(O)CCCCCCCCCCCCCCCCCCC(=O)*; γGlu = O=C(O)[C@H](CCC(=O)[*:2])N[*:1]; AEEA = NCCOCCOCC(=O)O; Aib = CC(C)(N)C(=O)O
B1: Example 318 (peptide)
peptide: Y[Aib]EGTFTSDYSILLDKK([AEEA-AEEA-γGlu-C20 diacid])AQ[Aib]EFIEYLIAGGPSSG-NH2
modifications: N-terminus assumed
SMILES: CC[C@H](C)[C@H](NC(=O)[C@H](CC(C)C)NC(=O)[C@H](Cc1ccc(O)cc1)NC(=O)[C@H](CCC(=O)O)NC(=O)[C@@H](NC(=O)[C@H](Cc1ccccc1)NC(=O)[C@H](CCC(=O)O)NC(=O)C(C)(C)NC(=O)[C@H](CCC(N)=O)NC(=O)[C@H](C)NC(=O)[C@H](CCCCNC(=O)COCCOCCNC(=O)COCCOCCNC(=O)CC[C@H](NC(=O)CCCCCCCCCCCCCCCCCCC(=O)O)C(=O)O)NC(=O)[C@H](CCCCN)NC(=O)[C@H](CC(=O)O)NC(=O)[C@H](CC(C)C)NC(=O)[C@H](CC(C)C)NC(=O)[C@@H](NC(=O)[C@H](CO)NC(=O)[C@H](Cc1ccc(O)cc1)NC(=O)[C@H](CC(=O)O)NC(=O)[C@H](CO)NC(=O)[C@@H](NC(=O)[C@H](Cc1ccccc1)NC(=O)[C@@H](NC(=O)CNC(=O)[C@H](CCC(=O)O)NC(=O)C(C)(C)NC(=O)[C@@H](N)Cc1ccc(O)cc1)[C@@H](C)O)[C@@H](C)O)[C@@H](C)CC)[C@@H](C)CC)C(=O)N[C@@H](C)C(=O)NCC(=O)NCC(=O)N1CCC[C@H]1C(=O)N[C@@H](CO)C(=O)N[C@@H](CO)C(=O)NCC(N)=O
B2: Example 319 (peptide)
peptide: Y[Aib]EGTFTSDYSILLDKK([AEEA-AEEA-γGlu-C20 diacid])AQ[Aib]EFIEYLIAGGPSSGAPPPS-NH2
modifications: N-terminus assumed
SMILES: CC[C@H](C)[C@H](NC(=O)[C@H](CC(C)C)NC(=O)[C@H](Cc1ccc(O)cc1)NC(=O)[C@H](CCC(=O)O)NC(=O)[C@@H](NC(=O)[C@H](Cc1ccccc1)NC(=O)[C@H](CCC(=O)O)NC(=O)C(C)(C)NC(=O)[C@H](CCC(N)=O)NC(=O)[C@H](C)NC(=O)[C@H](CCCCNC(=O)COCCOCCNC(=O)COCCOCCNC(=O)CC[C@H](NC(=O)CCCCCCCCCCCCCCCCCCC(=O)O)C(=O)O)NC(=O)[C@H](CCCCN)NC(=O)[C@H](CC(=O)O)NC(=O)[C@H](CC(C)C)NC(=O)[C@H](CC(C)C)NC(=O)[C@@H](NC(=O)[C@H](CO)NC(=O)[C@H](Cc1ccc(O)cc1)NC(=O)[C@H](CC(=O)O)NC(=O)[C@H](CO)NC(=O)[C@@H](NC(=O)[C@H](Cc1ccccc1)NC(=O)[C@@H](NC(=O)CNC(=O)[C@H](CCC(=O)O)NC(=O)C(C)(C)NC(=O)[C@@H](N)Cc1ccc(O)cc1)[C@@H](C)O)[C@@H](C)O)[C@@H](C)CC)[C@@H](C)CC)C(=O)N[C@@H](C)C(=O)NCC(=O)NCC(=O)N1CCC[C@H]1C(=O)N[C@@H](CO)C(=O)N[C@@H](CO)C(=O)NCC(=O)N[C@@H](C)C(=O)N1CCC[C@H]1C(=O)N1CCC[C@H]1C(=O)N1CCC[C@H]1C(=O)N[C@@H](CO)C(N)=O
B3: Example 323 (peptide)
peptide: YXEGTFTSDYSIXLDEKAQXAFIEYLIEGGPSSGAPPPS
modifications: Aib2, αMeL13, K17 conjugated to (2-[2-(2-Amino-ethoxy)-ethoxy]-acetyl)2-(γ-Glu)-CO-(CH2)16-CO2H, Aib20, C-terminal amide (NH2)
B4: Example 324 (peptide)
peptide: YXEGTFTSDYSIXLDKKAQXAFIEYLIAGGPSSGAPPPS
modifications: Aib2, αMeL13, K17 conjugated to (2-[2-(2-Amino-ethoxy)-ethoxy]-acetyl)2-(γ-Glu)-CO-(CH2)18-CO2H (printed "(CH2)1s"), Aib20, C-terminal amide (NH2)
B5: Example 226 (peptide)
peptide: YXEGTXTSDYSILLDEKAQXEFIXYLIEGGPSSGAPPPS
modifications: Y-Aib-EGT-αMeF(2F)-TSDYSILLDEK((2-[2-(2-Amino-ethoxy)-ethoxy]-acetyl)2-(γ-Glu)-CO-(CH2)18-CO2H)AQ-Aib-EFI-(D-Glu)-YLIEGGPSSGAPPPS-NH2
B6: Example 325 (peptide)
peptide: YXEGTXTSDYSILLDKKAQXAFIEYLIEGGPSSGAPPPS
modifications: Aib2, αMeF(2F)6, K17 conjugated to (2-[2-(2-Amino-ethoxy)-ethoxy]-acetyl)2-(γ-Glu)-CO-(CH2)18-CO2H, Aib20, C-terminal amide (NH2)
B7: Example 186 (peptide)
peptide: YXEGTXTSDXSIXLDEKAQXEFIXYLIEGGPSSGAPPPS
modifications: Y-Aib-EGT-αMeF(2F)-TSD-αMeY-SI-αMeF-LDEK((2-[2-(2-Amino-ethoxy)-ethoxy]-acetyl)2-(γ-Glu)-CO-(CH2)18-CO2H)AQ-Aib-EFI-(D-Glu)-YLIEGGPSSGAPPPS-NH2
B8: Example 328 (peptide)
peptide: FXEGTFTSDYSIXLDKKAQXAFIEYLIEAGPSSGAPPPS
modifications: Aib2, αMeL13, K17 conjugated to (2-[2-(2-Amino-ethoxy)-ethoxy]-acetyl)2-(γ-Glu)-CO-(CH2)16-CO2H, Aib20, C-terminal amide (NH2)
B9: Example 225 (peptide)
peptide: YXEGTXTSDYSIXLDEKAQXEFIXYLIEGGPSSGAPPPS
modifications: Y-Aib-EGT-αMeF-TSDYSI-Aib-LDEK((2-[2-(2-Amino-ethoxy)-ethoxy]-acetyl)2-(γ-Glu)-CO-(CH2)18-CO2H)AQ-Aib-EFI-(D-Glu)-YLIEGGPSSGAPPPS-NH2
B10: Example 127 (peptide)
peptide: YXEGTXTSDISILLDKKAQXAFIEYLIEGGPSSGAPPPS
modifications: Y-Aib-EGT-αMeF-TSDISILLDKK((2-[2-(2-Amino-ethoxy)-ethoxy]-acetyl)2-(γ-Glu)-CO-(CH2)18-CO2H)AQ-Aib-AFIEYLIEGGPSSGAPPPS-NH2

How the values were obtained:
Test in all cases: cell-based or functional assay
human GLP-1 receptor = human GLP-1 receptor (human, UniProt P43220 24-463)
[1] = target: T1, human gastric inhibitory peptide receptor (GIPR) (human, UniProt P48546 22-466)
T1 sequence (looked up): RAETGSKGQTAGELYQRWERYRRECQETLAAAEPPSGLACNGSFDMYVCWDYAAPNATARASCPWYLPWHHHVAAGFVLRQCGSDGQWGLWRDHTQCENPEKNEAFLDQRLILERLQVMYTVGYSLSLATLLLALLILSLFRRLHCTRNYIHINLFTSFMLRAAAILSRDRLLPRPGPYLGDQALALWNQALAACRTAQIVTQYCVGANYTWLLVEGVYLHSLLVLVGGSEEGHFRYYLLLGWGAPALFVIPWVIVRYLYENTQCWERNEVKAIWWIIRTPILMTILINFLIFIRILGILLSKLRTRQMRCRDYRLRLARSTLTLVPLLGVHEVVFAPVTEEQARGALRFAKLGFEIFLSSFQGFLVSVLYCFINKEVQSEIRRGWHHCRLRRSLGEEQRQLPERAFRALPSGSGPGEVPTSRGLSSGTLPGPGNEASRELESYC

[2] = target: human GLP-1 receptor (GLP-1R) (human, UniProt P43220 24-463)

Binder | hGLP1R GTPgS % Top (human GLP-1 receptor) [%] | hGLP1R GTPgS Rel EC50 (human GLP-1 receptor) [nM] | hGIPR cAMP Rel EC50 [1] [nM] | also measured
B1 | 58.4 | 0.415 |  | 
B2 | 65.7 | 0.657 |  | 
B3 | 81.9 | 0.79 |  | 
B4 | 84.5 | 0.475 |  | 
B5 |  |  | 0.0461 | 
B6 | 97.9 | 0.414 |  | 
B7 |  |  |  | hGLP1R cAMP EC50 ratio [2]: 0.572; hGLP1R cAMP Rel EC50 [2]: 0.0939 nM
B8 | 66.3 | 0.481 |  | 
B9 |  |  | 0.101 | 
B10 |  |  | 0.158 | hGIPR cAMP EC50 ratio [1]: 0.917; hGLP1R cAMP EC50 ratio [2]: 0.443; hGLP1R cAMP Rel EC50 [2]: 0.145 nM

Reference: patent US20220048967A1 (published 2022)
